Measured values from PMC12806343, “Aptamer‐Engineered Ellipsometry for Clinical Detection of BALF‐Derived Exosomes: Multi‐Level Engineering for Prognostic Evaluation of Immunotherapy Responses”.

Assays:
[1] = molecular target: recombinant human PD-L1 (Homo sapiens, UniProt Q9NZQ7 19-238); experiment: BLI; PD-L1 immobilized on AR probe; BLI: 1x PBS pH 7.4, aptamers 3-12 uM, 300 s association, 600 s dissociation, temperature not stated; EMSA: TBE-PAGE, binding buffer composition not given; details: protein: commercial; stem-loop
[2] = molecular target: PD-L1 on MDA-MB-231-derived exosomes (UniProt Q9NZQ7 19-290); experiment: ellipsometry (DP-SIS); exosomes 1e1-1e8 particles/mL; no detectable signal; BLI: 1x PBS pH 7.4, aptamers 3-12 uM, 300 s association, 600 s dissociation, temperature not stated; EMSA: TBE-PAGE, binding buffer composition not given; details: protein: native; stem-loop
Sequence of PD-L1 on MDA-MB-231-derived exosomes (Q9NZQ7 19-290): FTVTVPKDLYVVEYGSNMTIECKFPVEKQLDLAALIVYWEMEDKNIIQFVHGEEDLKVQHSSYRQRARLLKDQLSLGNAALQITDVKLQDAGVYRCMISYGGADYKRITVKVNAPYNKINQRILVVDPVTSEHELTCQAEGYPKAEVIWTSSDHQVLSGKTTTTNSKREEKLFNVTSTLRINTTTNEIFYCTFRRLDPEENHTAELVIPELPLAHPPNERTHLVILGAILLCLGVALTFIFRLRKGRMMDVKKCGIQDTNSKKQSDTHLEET

Sequence of recombinant human PD-L1 (Q9NZQ7 19-238): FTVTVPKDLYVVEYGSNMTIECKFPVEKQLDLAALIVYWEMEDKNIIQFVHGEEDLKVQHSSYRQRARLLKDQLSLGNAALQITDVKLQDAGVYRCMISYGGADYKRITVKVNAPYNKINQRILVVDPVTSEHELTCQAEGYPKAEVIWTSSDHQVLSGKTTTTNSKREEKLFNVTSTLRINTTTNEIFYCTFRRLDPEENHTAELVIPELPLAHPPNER

| Binder | Kd [1] [nM] | binding result [2] |
| --- | --- | --- |
| ATAGTCCCTGGCGTGCTTGGTCGGCAGAGCAGGTACGGTGTCA (structured_DNA, 5' amine (NH2)) [Apt45] | ~186 | no binding |
| GTACCTGCTCTCCGCGCGAAGCACGCCAGGGACT (structured_DNA, 5' amine (NH2)) [Tr-Apt13] | ~991 |  |
| TGACACCGTACCTGCTCTCCGCGCGAAGCACGCCAGGGACTAT (structured_DNA, 5' amine (NH2)) [Apt13] | ~714 |  |
